{
  "source": "patent US20110070245",
  "data": [
    {"molecular_target": "IMP-1 (IGF2BP1) (Homo sapiens) (UniProt Q9NZI8)", "sequence (Q9NZI8 whole entry)": "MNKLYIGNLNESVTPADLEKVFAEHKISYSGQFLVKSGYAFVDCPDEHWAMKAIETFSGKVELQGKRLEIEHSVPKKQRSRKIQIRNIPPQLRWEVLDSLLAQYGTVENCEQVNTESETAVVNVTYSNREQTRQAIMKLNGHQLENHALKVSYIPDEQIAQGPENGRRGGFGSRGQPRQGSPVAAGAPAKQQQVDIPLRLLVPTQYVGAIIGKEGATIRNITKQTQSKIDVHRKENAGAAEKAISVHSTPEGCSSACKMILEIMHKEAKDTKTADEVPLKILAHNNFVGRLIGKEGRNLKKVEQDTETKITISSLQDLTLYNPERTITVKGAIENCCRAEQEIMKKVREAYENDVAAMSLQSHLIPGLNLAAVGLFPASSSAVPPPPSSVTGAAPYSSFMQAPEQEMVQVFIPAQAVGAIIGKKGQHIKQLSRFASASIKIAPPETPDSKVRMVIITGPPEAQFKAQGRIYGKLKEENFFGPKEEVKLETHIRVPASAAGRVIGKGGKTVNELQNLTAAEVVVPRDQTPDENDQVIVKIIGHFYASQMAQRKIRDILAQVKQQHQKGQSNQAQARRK", "test": "pulldown", "conditions": "RIP-microarray, A549 cells", "values": [
      {"substance": "LPGAT1 mRNA", "binding signal (fold IP/total RNA)": 3.14},
      {"substance": "C20orf142 mRNA", "binding signal (fold IP/total RNA)": 3.21},
      {"substance": "PDF mRNA", "binding signal (fold IP/total RNA)": 4.18},
      {"substance": "PTP4A1 mRNA", "binding signal (fold IP/total RNA)": 3},
      {"substance": "UBE2S mRNA", "binding signal (fold IP/total RNA)": 6.78},
      {"substance": "CPSF6 mRNA", "binding signal (fold IP/total RNA)": 2.24},
      {"substance": "RNF20 mRNA", "binding signal (fold IP/total RNA)": 2.01},
      {"substance": "C17orf39 mRNA", "binding signal (fold IP/total RNA)": 2.57},
      {"substance": "HMBS mRNA", "binding signal (fold IP/total RNA)": 2.48},
      {"substance": "DDX1 mRNA", "binding signal (fold IP/total RNA)": 34.2},
      {"substance": "YTHDF1 mRNA", "binding signal (fold IP/total RNA)": 7.99},
      {"substance": "L3MBTL3 mRNA", "binding signal (fold IP/total RNA)": 3.19},
      {"substance": "LASP1 mRNA", "binding signal (fold IP/total RNA)": 2.66},
      {"substance": "AMIGO2 mRNA", "binding signal (fold IP/total RNA)": 5.65},
      {"substance": "SYNJ2 mRNA", "binding signal (fold IP/total RNA)": 2.56},
      {"substance": "SYNGR3 mRNA", "binding signal (fold IP/total RNA)": 12.3},
      {"substance": "RAN mRNA", "binding signal (fold IP/total RNA)": 81.9},
      {"substance": "MGC27277 mRNA", "binding signal (fold IP/total RNA)": 3.43},
      {"substance": "CRYAA mRNA", "binding signal (fold IP/total RNA)": 9.77}
    ]},
    {"molecular_target": "IMP-1 (IGF2BP1) (Homo sapiens) (UniProt Q9NZI8)", "test": "pulldown", "conditions": "RNA immunoprecipitation (FLAG then HA) and cDNA microarray, A549 cells", "values": [
      {"substance": "SMAD3 mRNA", "binding signal (fold IP/total RNA)": 720}
    ]}
  ]
}
